Measured values: WO2017208210A1
Changes are numbered by the printed parent chain. Values belong to the binder of their own block, whether it stands above or below them.

Tests used:
[1] = molecular target: T1, human MCAM expressed on CHO cells transfected with the full length human MCAM gene (human) (UniProt P43121); experiment: laminin/FACS assay, blocking of laminin 411 binding to hMCAM expressing CHO cells
T1 sequence: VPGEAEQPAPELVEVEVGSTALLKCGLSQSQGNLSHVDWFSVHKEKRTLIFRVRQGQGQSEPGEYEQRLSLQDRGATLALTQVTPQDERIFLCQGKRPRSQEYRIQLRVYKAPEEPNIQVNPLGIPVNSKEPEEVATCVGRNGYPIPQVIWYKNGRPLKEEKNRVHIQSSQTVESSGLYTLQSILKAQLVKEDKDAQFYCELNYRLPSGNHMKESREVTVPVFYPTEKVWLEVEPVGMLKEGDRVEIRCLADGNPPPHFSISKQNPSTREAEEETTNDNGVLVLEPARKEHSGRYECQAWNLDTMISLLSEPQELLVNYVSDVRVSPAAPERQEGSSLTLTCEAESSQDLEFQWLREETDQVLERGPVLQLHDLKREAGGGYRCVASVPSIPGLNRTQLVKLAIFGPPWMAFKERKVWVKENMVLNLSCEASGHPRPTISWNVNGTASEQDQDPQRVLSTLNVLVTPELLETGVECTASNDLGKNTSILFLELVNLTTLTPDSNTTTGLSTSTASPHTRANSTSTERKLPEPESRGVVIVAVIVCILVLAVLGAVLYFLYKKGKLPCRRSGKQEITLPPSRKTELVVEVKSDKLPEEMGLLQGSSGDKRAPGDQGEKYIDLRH

[2] = molecular target: T2, recombinant hMCAM-His (human) (UniProt P43121); experiment: competitive ELISA on hMCAM-His against biotinylated rodent or chimeric antibody
T2 sequence: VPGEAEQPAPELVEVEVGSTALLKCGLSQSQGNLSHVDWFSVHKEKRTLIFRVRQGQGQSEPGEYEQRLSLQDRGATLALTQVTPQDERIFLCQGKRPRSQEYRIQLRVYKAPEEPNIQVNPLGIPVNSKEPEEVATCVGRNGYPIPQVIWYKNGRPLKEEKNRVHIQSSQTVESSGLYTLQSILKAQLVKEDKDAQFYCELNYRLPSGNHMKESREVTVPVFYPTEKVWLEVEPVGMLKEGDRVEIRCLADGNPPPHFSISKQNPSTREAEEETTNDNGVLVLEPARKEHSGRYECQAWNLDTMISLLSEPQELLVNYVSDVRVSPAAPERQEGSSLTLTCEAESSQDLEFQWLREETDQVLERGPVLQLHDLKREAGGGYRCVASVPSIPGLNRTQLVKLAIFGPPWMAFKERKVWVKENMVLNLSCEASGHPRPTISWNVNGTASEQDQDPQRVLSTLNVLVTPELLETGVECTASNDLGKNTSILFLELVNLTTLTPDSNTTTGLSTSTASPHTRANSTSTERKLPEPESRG

[3] = molecular target: chimpanzee MCAM on circulating T cells (chimpanzee); experiment: FACS, chimpanzee whole blood in vitro

fold reduction in potency (laminin blocking) against the rodent parent [1]: < 2 x
fold reduction in apparent affinity against the rodent parent [2]: < 2 x
B1: humanized 2120 antibody VH5VL3 (G-A N-deamidation mutant VH/conservative VL) (antibody, V domains shown)
VH: QVTLKESGPVLVKPTETLTLTCTVSGFSLTSNAVSWVRQPPGKALEWIAAISSGGTTYYNSAFKSRLTISRDTSKSQVVLTMTNMDPVDTATYYCARRYGYGWYFDFWGQGTLVTVSS
VL: DIQMTQSPSSLSASVGDRVTINCKASQNIYNSLAWYQQKPGKAPKVLIFNANSLQTGIPSRFSGSGSGTDFTLTISSLQPEDFATYYCQQFYSGYTFGQGTKLEIK

concentration required to saturate MCAM [3]: 1 to 3 µg/mL
B2: PRX003 (humanized anti-MCAM antibody, human IgG1 kappa isotype) (antibody, V domains shown)
VH: B1 VH with Q1E
VL: B1 VL
